Results published in patent US20260035452A1 (THE UNIVERSITY OF BIRMINGHAM, priority 2022, published 2026).
Marks after values point to notes of the source that are not given here.

Legend:
[1] = Haematological investigations; type: in vivo; details: mice, 100 μg/mouse
Experimental: To assess the neutralising activity of Ab-IPL-IL-17™, CD-1 mice were injected i.p. with 100 μg/mouse of Ab-IPL-IL-17™, MAB421 or secukinumab as positive controls. After 30 min, an i.p. injection of 10 μg/mouse of IL-17A, IL-17F or IL-17A/F heterodimer was administered. After 2 h blood was collected by intracardiac puncture and serum levels of (A) IL-17A, (B) IL-17F or (C) IL-17A/F heterodimer were quantified by Elisa. (C-F) For the evaluation of immunogenic effects CD-1 mice were injected i.p. with 100 μg of IgG1 isotype antibody (vehicle) or IL-17 neutralising antibodies (bimekizumab, secukinumab, MAB421 or Ab-IPL-IL-17™). In the selected time-point (2 h, 24 h, 72 h, 7 days, 14 days and 21 days) total IgG, IgG1, lymphocytes and platelets levels were determined by Elisa and haematological blood count test, respectively. Data are presented as mean±S.D. for n=5 mice per group. Statistical analysis was conducted by one or two-way ANOVA followed by Bonferroni's for multiple comparisons. *P≤0.05, **P≤0.01, ***P≤0.001 vs IL-17 group; ^#P≤0.05, ^##P≤0.01, ^###P≤0.001, ^####P≤0.0001 vs vehicle group.
(§1) Standard laboratory procedures were used for blood sampling and measurements (95). Haematological investigations, for all experimental conditions, including blood count test, leukocyte, and sidereal formula were performed on citrated and not-anticoagulated blood samples, respectively. Serological tests were performed by CELL-DYN Sapphire purchased from Abbott S.R.L. (Milan, Italy). All procedures were conducted under strictly aseptic conditions.
as §1, with “measurements.” for “measurements (95).”

patients = details: cited from earlier work; for side effect: intestinal inflammation: patients with IBD

For “Secukinumab: human anti-IL-17A monoclonal antibody”, the “GRA (Granulocytes)” value ([1]; 2 h) was 0.22 ± 0.16 10^3/μL, the “HCT (Hematocrit)” value ([1]; 2 h) was 29.56 ± 2.26% and the “HGB (Hemoglobin)” value ([1]; 2 h) was 9.92 ± 1.78 g/dL. For the same substance, the “MCH (Mean Corpuscular Hemoglobin)” value ([1]; 2 h) was 17.58 ± 1.42 pg, the “MCV (Mean Cell Volume)” value ([1]; 2 h) was 61.86 ± 8.95 fL and the MHCH ([1]; 2 h) was 30.60 ± 4.27 g/dL. For the same substance, the MID ([1]; 2 h) was 0.38 ± 0.31 10^3/μL, the “MPV (Mean Platelet Volume)” value ([1]; 2 h) was 4.54 ± 0.5771 fL and the “PCT (Plateletcrit)” value ([1]; 2 h) was 0.27 ± 0.08%. The “PWD (Platelet Distribution Width)” value ([1]; 2 h) was 16.30 ± 2.15%, the “RBC (Red Blood Cells)” value ([1]; 2 h) was 5.57 ± 1.18 10^6/μL and the “RDW (Red blood cells Distribution Width)” value ([1]; 2 h) was 18.14 ± 1.87%. The “WBC (White Blood Cells)” value ([1]; 2 h) was 3.96 ± 1.19 10^3/μL, the “GRA (Granulocytes)” value ([1]; 24 h) was 0.24 ± 0.11 10^3/μL and the “HCT (Hematocrit)” value ([1]; 24 h) was 28.86 ± 1.80%. For the same substance, the “HGB (Hemoglobin)” value ([1]; 24 h) was 8.88 ± 1.65 g/dL, the “MCH (Mean Corpuscular Hemoglobin)” value ([1]; 24 h) was 19.10 ± 1.88 pg and the “MCV (Mean Cell Volume)” value ([1]; 24 h) was 63.60 ± 8.78 fL. The MHCH ([1]; 24 h) was 31.54 ± 4.15 g/dL, the MID ([1]; 24 h) was 0.44 ± 0.25 10^3/μL and the “MPV (Mean Platelet Volume)” value ([1]; 24 h) was 5.16 ± 0.8764 fL. The “PCT (Plateletcrit)” value ([1]; 24 h) was 0.25 ± 0.09%, the “PWD (Platelet Distribution Width)” value ([1]; 24 h) was 16.06 ± 2.30% and the “RBC (Red Blood Cells)” value ([1]; 24 h) was 4.48 ± 1.11 10^6/μL. For the same substance, the “RDW (Red blood cells Distribution Width)” value ([1]; 24 h) was 18.24 ± 1.12%, the “WBC (White Blood Cells)” value ([1]; 24 h) was 4.44 ± 1.88 10^3/μL and the “GRA (Granulocytes)” value ([1]; 72 h) was 0.30 ± 0.16 10^3/μL. The “HCT (Hematocrit)” value ([1]; 72 h) was 21.30 ± 5.47** %, the “HGB (Hemoglobin)” value ([1]; 72 h) was 6.92 ± 1.53* g/dL and the “MCH (Mean Corpuscular Hemoglobin)” value ([1]; 72 h) was 21.78 ± 4.20* pg. The “MCV (Mean Cell Volume)” value ([1]; 72 h) was 81.12 ± 8.84 fL, the MHCH ([1]; 72 h) was 30.90 ± 6.72 g/dL and the MID ([1]; 72 h) was 0.40 ± 0.25 10^3/μL. The “MPV (Mean Platelet Volume)” value ([1]; 72 h) was 7.80 ± 1.733**** fL, the “PCT (Plateletcrit)” value ([1]; 72 h) was 0.16 ± 0.06% and the “PWD (Platelet Distribution Width)” value ([1]; 72 h) was 18.02 ± 2.61%. For the same substance, the “RBC (Red Blood Cells)” value ([1]; 72 h) was 3.7 ± 1.05* 10^6/μL, the “RDW (Red blood cells Distribution Width)” value ([1]; 72 h) was 16.86 ± 3.47% and the “WBC (White Blood Cells)” value ([1]; 72 h) was 5.10 ± 2.34 10^3/μL. For the same substance, the “GRA (Granulocytes)” value ([1]; 7 d) was 0.24 ± 0.13 10^3/μL, the “HCT (Hematocrit)” value ([1]; 7 d) was 22.94 ± 4.68* % and the “HGB (Hemoglobin)” value ([1]; 7 d) was 7.76 ± 1.31 g/dL. The “MCH (Mean Corpuscular Hemoglobin)” value ([1]; 7 d) was 21.14 ± 4.82 pg, the “MCV (Mean Cell Volume)” value ([1]; 7 d) was 71.98 ± 8.64 fL and the MHCH ([1]; 7 d) was 29.50 ± 5.03 g/dL. For the same substance, the MID ([1]; 7 d) was 0.40 ± 0.16 10^3/μL, the “MPV (Mean Platelet Volume)” value ([1]; 7 d) was 6.58 ± 1.242* fL and the “PCT (Plateletcrit)” value ([1]; 7 d) was 0.21 ± 0.05%. For the same substance, the “PWD (Platelet Distribution Width)” value ([1]; 7 d) was 15.54 ± 2.91%, the “RBC (Red Blood Cells)” value ([1]; 7 d) was 4.10 ± 0.78 10^6/μL and the “RDW (Red blood cells Distribution Width)” value ([1]; 7 d) was 18.38 ± 1.90%. The “WBC (White Blood Cells)” value ([1]; 7 d) was 4.74 ± 1.30 10^3/μL, the “GRA (Granulocytes)” value ([1]; 14 d) was 0.20 ± 0.10 10^3/μL and the “HCT (Hematocrit)” value ([1]; 14 d) was 27.88 ± 2.63%. For the same substance, the “HGB (Hemoglobin)” value ([1]; 14 d) was 9.480 ± 1.36 g/dL, the “MCH (Mean Corpuscular Hemoglobin)” value ([1]; 14 d) was 17.50 ± 1.09 pg and the “MCV (Mean Cell Volume)” value ([1]; 14 d) was 63.46 ± 8.13 fL. The MHCH ([1]; 14 d) was 29.64 ± 4.38 g/dL, the MID ([1]; 14 d) was 0.38 ± 0.13 10^3/μL and the “MPV (Mean Platelet Volume)” value ([1]; 14 d) was 5.86 ± 0.5128 fL. For the same substance, the “PCT (Plateletcrit)” value ([1]; 14 d) was 0.25 ± 0.05%, the “PWD (Platelet Distribution Width)” value ([1]; 14 d) was 15.98 ± 2.03% and the “RBC (Red Blood Cells)” value ([1]; 14 d) was 5.98 ± 1.42 10^6/μL. For the same substance, the “RDW (Red blood cells Distribution Width)” value ([1]; 14 d) was 18.06 ± 2.06%, the “WBC (White Blood Cells)” value ([1]; 14 d) was 3.08 ± 0.86 10^3/μL and the “GRA (Granulocytes)” value ([1]; 21 d) was 0.20 ± 0.10 10^3/μL. The “HCT (Hematocrit)” value ([1]; 21 d) was 29.04 ± 2.30%, the “HGB (Hemoglobin)” value ([1]; 21 d) was 10.16 ± 1.52 g/dL and the “MCH (Mean Corpuscular Hemoglobin)” value ([1]; 21 d) was 17.62 ± 1.05 pg. The “MCV (Mean Cell Volume)” value ([1]; 21 d) was 62.56 ± 7.90 fL, the MHCH ([1]; 21 d) was 30.34 ± 4.54 g/dL and the MID ([1]; 21 d) was 0.34 ± 0.15 10^3/μL. For the same substance, the “MPV (Mean Platelet Volume)” value ([1]; 21 d) was 4.92 ± 0.4207 fL, the “PCT (Plateletcrit)” value ([1]; 21 d) was 0.28 ± 0.04% and the “PWD (Platelet Distribution Width)” value ([1]; 21 d) was 16.14 ± 1.80%. The “RBC (Red Blood Cells)” value ([1]; 21 d) was 6.25 ± 1.18 10^6/μL, the “RDW (Red blood cells Distribution Width)” value ([1]; 21 d) was 18.34 ± 1.33% and the “WBC (White Blood Cells)” value ([1]; 21 d) was 3.280 ± 1.47 10^3/μL. For the same substance, the “side effect: intestinal inflammation” value (patients) was “enhanced intestinal inflammation”.

In the case of “brodalumab: licensed mAb in the IL-17-IL-17R pathway”, the “side effect: intestinal inflammation” value (patients) is listed as “enhanced intestinal inflammation” and the “side effect: suicidal thoughts” value (patients; some patients with psoriasis) is listed as “suicidal thoughts in some patients with psoriasis”.
